Laboratory results: publication PMC9131899 (Blood Advances, 2022)

Target: T1, high molecular weight kininogen (HK), purified protein used in ELISA (human, UniProt P01042 19-644)
T1 sequence (looked up): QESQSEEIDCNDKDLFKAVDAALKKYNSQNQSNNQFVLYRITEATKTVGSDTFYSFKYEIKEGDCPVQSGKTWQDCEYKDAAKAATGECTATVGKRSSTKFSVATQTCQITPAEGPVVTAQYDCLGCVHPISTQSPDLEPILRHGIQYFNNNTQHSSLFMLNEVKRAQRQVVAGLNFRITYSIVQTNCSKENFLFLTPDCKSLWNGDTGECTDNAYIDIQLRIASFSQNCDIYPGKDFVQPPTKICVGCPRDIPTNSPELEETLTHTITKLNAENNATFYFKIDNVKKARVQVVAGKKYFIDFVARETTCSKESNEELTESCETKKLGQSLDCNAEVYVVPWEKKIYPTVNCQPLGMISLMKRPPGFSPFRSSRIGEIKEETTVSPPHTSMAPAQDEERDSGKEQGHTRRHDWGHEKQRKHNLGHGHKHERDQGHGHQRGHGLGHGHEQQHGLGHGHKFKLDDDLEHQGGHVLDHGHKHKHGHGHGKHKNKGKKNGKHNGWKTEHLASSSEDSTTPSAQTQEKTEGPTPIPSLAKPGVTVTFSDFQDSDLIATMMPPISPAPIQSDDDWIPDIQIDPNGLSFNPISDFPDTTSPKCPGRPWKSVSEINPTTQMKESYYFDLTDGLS
Experiment: ELISA

- binding result: binds
B1: prekallikrein (PK), purified protein used in ELISA (natural protein)
chain: not shown
